# In patent US11981935B2, “7β-hydroxysteroid dehydrogenase mutants and process for the preparation of ursodeoxycholic acid” (PharmaZell GmbH, priority 2010, dated 2024):
# Changes are numbered by the printed parent chain. In names and notes the source's numbering stands. Entries after “also recorded” stand apart in the source; their conditions may differ.
# B1: 7β-HSDH from Collinsella aerofaciens DSM 3979 (ATCC 25986), wild type, SEQ ID NO:2 (Collinsella aerofaciens ATCC 25986) (protein)
# chain: MNLREKYGEWGLILGATEGVGKAFCEKIAAGGMNVVMVGRREEKLNVLAGEIRETYGVETKVVRADFSQPGAAETVFAATEGLDMGFMSYVACLHSFGKIQDTPWEKHEAMINVNVVTFLKCFHHYMRIFAAQDRGAVINVSSMTGISSSPWNGQYGAGKAFILKMTEAVACECEGTGVDVEVITLGTTLTPSLLSNLPGGPQGEAVMKIALTPEECVDEAFEKLGKELSVIAGQRNKDSVHDWKANHTEDEYIRYMGSFYRD
# B2: Collinsella aerofaciens 7β-HSDH mutant G39D, SEQ ID NO:37 (parent SEQ ID NO:2) (Collinsella aerofaciens ATCC 25986; G39D) (protein)
# chain: B1 chain with G39D
# notes: made in house
# B3: Collinsella aerofaciens 7β-HSDH mutant G39D R40V, SEQ ID NO:40 (parent SEQ ID NO:2) (Collinsella aerofaciens ATCC 25986; G39D/R40V) (protein)
# chain: B1 chain with G39D, R40V
# notes: made in house
# B4: Collinsella aerofaciens 7β-HSDH mutant G39D R40L, SEQ ID NO:38 (parent SEQ ID NO:2) (Collinsella aerofaciens ATCC 25986; G39D/R40L) (protein)
# chain: B1 chain with G39D, R40L
# notes: made in house
# B5: G39D R40I: 7β-HSDH double mutant G39D/R40I, SEQ ID NO:39 (protein)
# chain: B1 chain with G39D, R40I
# B6: Collinsella aerofaciens 7β-HSDH mutant G39D R40I, SEQ ID NO:39 (parent SEQ ID NO:2) (Collinsella aerofaciens ATCC 25986; G39D/R40I) (protein)
# chain: B1 chain with G39D, R40I
# notes: made in house
# B7: FDH: formate dehydrogenase from Mycobacterium vaccae N10, mutant D221G, utilizes both NAD+ and NADP+ (protein)
# chain: MAKVLCVLYDDPVDGYPKTYARDDLPKIDHYPGGQILPTPKAIDFTPGQLLGSVSGELGLREYLESNGHTLVVTSDKDGPDSVFERELVDADVVISQPFWPAYLTPERIAKAKNLKLALTAGIGSDHVDLQSAIDRNVTVAEVTYCNSISVAEHVVMMILSLVRNYLPSHEWARKGGWNIADCVSHAYDLEAMHVGTVAAGRIGLAVLRRLAPFDVHLHYTGRHRLPESVEKELNLTWHATREDMYPVCDVVTLNCPLHPETEHMINDETLKLFKRGAYIVNTARGKLCDRDAVARALESGRLAGYAGDVWFPQPAPKDHPWRTMPYNGMTPHISGTTLTAQARYAAGTREILECFFEGRPIRDEYLIVQGGALAGTGAHSYSKGNATGGSEEAAKFKKAV
# modifications: CDS (1)..(1203)
# Key:
# [1] = target: 7β-HSDH from Collinsella aerofaciens DSM 3979 (Collinsella aerofaciens, UniProt A4ECA9); assay type: biochemical
# 7β-HSDH = 7β-HSDH (Collinsella aerofaciens, UniProt A4ECA9); assay: Photometric identification of 7β-HSDH activity (production example 1); assay type: biochemical, Collinsella aerofaciens ATCC 25986; conditions: 0.1 mM test substance, potassium phosphate buffer 50 mM pH 8, in the presence of NADP+ or NADPH
# Procedure: For identification of 7β-HSDH activity, the activity was investigated by a photometric method. In a 1 ml cuvette, enzyme and 0.1 mM of test substance (UDCA) were mixed in potassium phosphate buffer (50 mM, pH8).
# [2] = substrate: NC(=O)C1=CN([C@@H]2O[C@H](COP(=O)(O)OP(=O)(O)OC[C@H]3O[C@@H](n4cnc5c(N)ncnc54)[C@H](OP(=O)(O)O)[C@@H]3O)[C@@H](O)[C@H]2O)C=CC1; assay: purified protein, by the assay type; conditions: other: pH 8, 25° C.
# [3] = substrate: NC(=O)c1ccc[n+]([C@@H]2O[C@H](COP(=O)([O-])OP(=O)(O)OC[C@H]3O[C@@H](n4cnc5c(N)ncnc54)[C@H](OP(=O)(O)O)[C@@H]3O)[C@@H](O)[C@H]2O)c1; assay: purified protein, by the assay type; conditions: other: pH 8, 25° C.
# [4] = Photometric activity of 7β-HSDH variants with NADPH or NADH (production example 7); assay type: biochemical, Collinsella aerofaciens; conditions: for Specific activity NADH / Volumetric activity NADH: cofactor NADH; for Specific activity NADPH / Volumetric activity NADPH: cofactor NADPH
# [5] = substrate: C[C@H](CCC(=O)O)[C@H]1CC[C@H]2[C@@H]3C(=O)C[C@@H]4CC(=O)CC[C@]4(C)[C@H]3CC(=O)[C@]12C; assay: Enzyme-kinetic investigation of the 7β-HSDH mutants; assay type: biochemical, Collinsella aerofaciens; conditions: other: 0.5 mM NADH
# Description: Altogether, the 7β-HSDH mutants G39D, G39D/R40L, G39D/R40I and G39D/R40V were produced. The G39D mutant is produced by Quickchange mutagenesis, and the other mutants are produced by the PCR method of Sanchis et al. (Sanchis J, Fernández L, Carballeira J D, Drone J, Gumulya Y, Höbenreich H, Kahakeaw D, Kille S, Lohmer R, Peyralans J J, Podtetenieff J, Prasad S, Soni P, Taglieber A, Wu S, Zilly F E, Reetz M T. Improved PCR method for the creation of saturation mutagenesis libraries in directed evolution: application to difficult-to-amplify templates. Appl Microbiol Biotechnol. 2008 November; 81(2): 387-97). The following primers were used for the mutagenesis, with the bases shown in italics coding in each case for the exchanged amino acid:
# The mutants prepared are evaluated by means of enzyme-kinetic investigations, the results of which are shown as graphs in FIG. 11. […] The need to increase the cofactor concentration in the enzyme-kinetic investigation of the 7β-HSDH mutants is due to the increased semisaturation concentrations for the cofactor NADH in the mutants. From the plots of substrate concentration versus specific enzyme activity, the characteristic curves of Michaelis-Menten kinetics can be seen for the 7β-HSDH mutants, whereas the curve of Michaelis-Menten kinetics with substrate inhibition can be seen from the plot for the unmodified wild-type 7β-HSDH. Accordingly, the classical Michaelis-Menten model (equation 1) was used for evaluating the measurement series of the 7β-HSDH mutants and the Michaelis-Menten model with substrate inhibition was used for the measurement series of the unmodified wild-type 7β-HSDH (equation 2).
# [formula] • EAx: specific enzyme activity, U mg^−1=μmol min^−1 mg^−1 • vmax: maximum specific enzyme activity, U mg^−1=μmol min^−1 mg^−1 • cS: substrate or cofactor concentration, mol L^−1 • Km: semisaturation concentration, mol L^−1
# The following table gives enzyme-kinetic parameters of the unmodified wild-type 7β-HSDH and the mutants thereof with altered cofactor specificity. NADPH is used as cofactor for the wild type, whereas NADH is used as cofactor for the mutants.
# [6] = Kinetic constants of FDH (mutant D221G) at pH 6, 7 and 8; assay type: biochemical, Mycobacterium vaccae
molecule,measurement,setting,value
NC(=O)c1ccc[n+]([C@@H]2O[C@H](COP(=O)([O-])OP(=O)(O)OC[C@H]3O[C@@H](n4cnc5c(N)ncnc54)[C@H](OP(=O)(O)O)[C@@H]3O)[C@@H](O)[C@H]2O)c1 [NADP^+],kcat,[1],944.95 1 μmol/(μmol × min)
same,Km,[1]; pH 8,5.32 µM
"C[C@H](CCC(=O)O)[C@H]1CC[C@H]2[C@@H]3[C@H](O)C[C@@H]4C[C@H](O)CC[C@]4(C)[C@H]3C[C@H](O)[C@]12C [CA, Cholic acid]",activity of 7β-HSDH against the test substance,7β-HSDH,no activity; also recorded: not detectable
NC(=O)C1=CN([C@@H]2O[C@H](COP(=O)(O)OP(=O)(O)OC[C@H]3O[C@@H](n4cnc5c(N)ncnc54)[C@H](OP(=O)(O)O)[C@@H]3O)[C@@H](O)[C@H]2O)C=CC1 [NADPH],kcat,[1],1033.44 1 μmol/(μmol × min)
"C[C@H](CCC(=O)O)[C@H]1CC[C@H]2[C@@H]3[C@@H](O)C[C@@H]4C[C@H](O)CC[C@]4(C)[C@H]3CC[C@]12C [UDCA, Ursodeoxycholic acid]",activity of 7β-HSDH against the test substance,7β-HSDH,60 U/ml
same,Vmax,[1],38.17 U/mg protein
same,kcat,[1],1179.39 1 μmol/(μmol × min)
"C[C@H](CCC(=O)O)[C@H]1CC[C@H]2[C@@H]3C(=O)C[C@@H]4C[C@H](O)CC[C@]4(C)[C@H]3CC[C@]12C [7-Keto-LCA, 7-Keto-lithocholic acid]",activity of 7β-HSDH against the test substance,7β-HSDH,35 U/ml
B1,Km,[2],4.50 µM
same,Vmax,[2],33.4 µmol/min/mg
same,kcat,[2],1033.44 μmol/(μmol × min)
same,Km,[3],5.32 µM
same,Vmax,[3],30.6 µmol/min/mg
same,kcat,[3],944.95 μmol/(μmol × min)
B2,Specific activity NADH,[4],0.1 U/mg
same,Volumetric activity NADH,[4],2 U/ml
same,Specific activity NADPH,[4],5.1 U/mg
same,Volumetric activity NADPH,[4],119 U/ml
same,Km,[5],660 ± 120 µM
same,Vmax,[5],2.9 µmol/min/mg
B3,Km,[5],880 ± 20 µM
same,Vmax,[5],2.69 µmol/min/mg
B4,Km,[5],560 ± 80 µM
same,Vmax,[5],1.6 µmol/min/mg
B5,Specific activity NADH,[4],0.8 U/mg
same,Volumetric activity NADH,[4],21 U/ml
same,Specific activity NADPH,[4],0 U/mg
same,Volumetric activity NADPH,[4],0 U/ml
B6,Km,[5],920 ± 170 µM
same,Vmax,[5],4.64 µmol/min/mg
B7,Specific activity,"[6]; pH 6, NAD+",4.6 U × mg^−1
same,Specific activity,"[6]; pH 6, NADP+",1 U × mg^−1
same,Specific activity,"[6]; pH 7, NAD+",5.1 U × mg^−1
same,Specific activity,"[6]; pH 7, NADP+",1.2 U × mg^−1
same,Specific activity,"[6]; pH 8, NAD+",4.7 U × mg^−1
same,Specific activity,"[6]; pH 8, NADP+",1 U × mg^−1
